Data reported in patent publication US20140193401A1 (published 2014).

Columns and labels:
[1] = target: pertussis toxin holotoxin (Bordetella pertussis, UniProt P04977 35-269; P04978 31-226; P04979 32-227; P0A3R5 43-152; P04981 36-133); test: cell-based or functional assay
[2] = target: pertussis toxin B-oligomer (Bordetella pertussis, UniProt P04978 31-226; P04979 32-227; P0A3R5 43-152; P04981 36-133); test: ELISA repeated with mAb 1B7; EC50 as percent of the PTx reference
PTx-S1-220 Y8A = target: T1, PTx-S1-220 Y8A (Bordetella pertussis, UniProt P04977 35-254); test: Western blot with mAb 1B7; paragraph 150 says 1B7 was unable to bind Y8A
T1 chain: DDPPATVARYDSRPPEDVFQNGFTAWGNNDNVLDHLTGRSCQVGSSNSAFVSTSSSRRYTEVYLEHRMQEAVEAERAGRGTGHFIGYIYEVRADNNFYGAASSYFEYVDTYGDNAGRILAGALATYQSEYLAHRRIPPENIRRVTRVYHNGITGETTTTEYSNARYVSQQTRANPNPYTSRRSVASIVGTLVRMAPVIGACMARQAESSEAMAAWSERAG

PTx-S1-220 T159A = target: T2, PTx-S1-220 T159A (Bordetella pertussis, UniProt P04977 35-254); test: SPR (BIAcore 3000), mAb 1B7 immobilised on CM5 chip, toxin injected
T2 chain: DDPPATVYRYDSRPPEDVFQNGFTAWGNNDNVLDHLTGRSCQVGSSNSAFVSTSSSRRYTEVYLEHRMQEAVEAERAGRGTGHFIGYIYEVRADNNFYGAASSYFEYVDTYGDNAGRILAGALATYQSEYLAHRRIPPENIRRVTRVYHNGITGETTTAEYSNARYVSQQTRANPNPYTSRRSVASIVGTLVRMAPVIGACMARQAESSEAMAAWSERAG

PTx-S1-220 E210A = target: T3, PTx-S1-220 E210A (Bordetella pertussis, UniProt P04977 35-254); test: as above
T3 chain: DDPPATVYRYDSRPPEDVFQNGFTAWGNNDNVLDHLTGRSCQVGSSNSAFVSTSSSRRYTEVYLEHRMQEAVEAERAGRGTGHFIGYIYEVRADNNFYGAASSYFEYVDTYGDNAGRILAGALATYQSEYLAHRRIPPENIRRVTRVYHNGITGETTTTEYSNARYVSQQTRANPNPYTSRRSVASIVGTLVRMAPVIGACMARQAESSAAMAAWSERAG

PTx-S1-220 E16A = target: T4, PTx-S1-220 E16A (Bordetella pertussis, UniProt P04977 35-254); test: as above
T4 chain: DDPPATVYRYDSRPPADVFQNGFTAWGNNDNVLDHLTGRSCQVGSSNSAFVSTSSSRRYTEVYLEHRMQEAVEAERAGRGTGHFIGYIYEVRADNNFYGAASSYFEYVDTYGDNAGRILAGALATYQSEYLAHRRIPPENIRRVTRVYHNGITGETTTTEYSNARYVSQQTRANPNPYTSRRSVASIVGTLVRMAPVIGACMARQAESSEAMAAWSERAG

PTx-S1-220 T158A = target: T5, PTx-S1-220 T158A (Bordetella pertussis, UniProt P04977 35-254); test: as above
T5 chain: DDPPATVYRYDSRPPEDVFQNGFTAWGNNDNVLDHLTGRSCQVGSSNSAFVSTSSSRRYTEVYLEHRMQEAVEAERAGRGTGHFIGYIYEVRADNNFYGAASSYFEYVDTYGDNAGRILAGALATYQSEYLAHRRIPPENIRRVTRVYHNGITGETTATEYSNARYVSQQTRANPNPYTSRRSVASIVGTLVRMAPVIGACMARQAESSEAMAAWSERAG

PTx-S1-220 Y166A = target: T6, PTx-S1-220 Y166A (Bordetella pertussis, UniProt P04977 35-254); test: as above
T6 chain: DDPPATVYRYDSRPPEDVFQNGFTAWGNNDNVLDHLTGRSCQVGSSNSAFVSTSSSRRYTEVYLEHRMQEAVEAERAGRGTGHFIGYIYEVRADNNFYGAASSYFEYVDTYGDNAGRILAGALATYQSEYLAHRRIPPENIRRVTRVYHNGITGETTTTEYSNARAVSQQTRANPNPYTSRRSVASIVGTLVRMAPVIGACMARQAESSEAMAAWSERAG

PTx-S1-220 R39A = target: T7, PTx-S1-220 R39A (Bordetella pertussis, UniProt P04977 35-254); test: as above
T7 chain: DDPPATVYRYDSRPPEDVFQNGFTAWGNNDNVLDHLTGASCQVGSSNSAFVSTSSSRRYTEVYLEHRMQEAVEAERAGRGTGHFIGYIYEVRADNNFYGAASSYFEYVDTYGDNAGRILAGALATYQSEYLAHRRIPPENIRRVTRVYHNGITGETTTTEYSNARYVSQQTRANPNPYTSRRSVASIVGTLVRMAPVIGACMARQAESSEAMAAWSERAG

PTx-S1-220 R79A = target: T8, PTx-S1-220 R79A (Bordetella pertussis, UniProt P04977 35-254); test: as above
T8 chain: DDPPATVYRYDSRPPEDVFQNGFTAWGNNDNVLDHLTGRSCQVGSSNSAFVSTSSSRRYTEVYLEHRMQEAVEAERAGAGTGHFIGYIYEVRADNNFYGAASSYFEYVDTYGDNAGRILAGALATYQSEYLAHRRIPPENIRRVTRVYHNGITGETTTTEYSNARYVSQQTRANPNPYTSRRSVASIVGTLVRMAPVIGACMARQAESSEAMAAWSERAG

B1: murine monoclonal antibody 1B7 (antibody, V domains shown)
VH: EVQLQQSGSELVRPGASVKLSCKASGYKFTSYWMHWVKQRPGQGLEWIGNIFPGSGSTNYDEKFNSKATLTVDTSSNTAYMQLSSLTSEDSAVYYCTRWLSGAYFDYWGQGTTLTVSS
VL: DIQMTQSPALMSASPGEKVTMTCSASSSVSFMYWYQQKPRSSPKPWIYLTSNLPSGVPARFSGSGSGTSYSLTISSMEAEDAATYYCQQWSSHPPTFGSGTKLEIKR
notes: also called mAb 1B7; 1B7 mAb
In Vitro Neutralization (nM), minimum protective concentration, CHO clustering assay [1]: 5.2 nM | % EC50 PTx [2]: 30% | binding result (PTx-S1-220 Y8A): no binding | koff (PTx-S1-220 T159A): 0.0014 s⁻¹ | koff (PTx-S1-220 E210A): 0.0016 s⁻¹ | koff (PTx-S1-220 E16A): 0.0016 s⁻¹ | koff (PTx-S1-220 T158A): 0.0013 s⁻¹ | koff (PTx-S1-220 Y166A): 0.0014 s⁻¹ | koff (PTx-S1-220 R39A): 0.003 s⁻¹ | koff (PTx-S1-220 R79A): 0.025 s⁻¹
